One block for each substance: values may come before it.
Key:
[1] = molecular target: endothelial protein C receptor (EPCR) on cells (Homo sapiens (Human)) (UniProt Q9UNN8)
[2] = molecular target: endothelial protein C receptor (EPCR), as in the binding assays (Homo sapiens (Human)) (UniProt Q9UNN8); test: apparent Kd; binding to immobilized soluble EPCR and to K293 cells transfected with wtEPCR (format of the value not told)
[3] = molecular target: T1, PAR-1 N-terminal tail peptide (TR33-62) (artificial)
T1 sequence (peptide): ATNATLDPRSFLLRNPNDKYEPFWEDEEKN

[4] = molecular target: T1, PAR-1 N-terminal tail peptide (TR33-62) (artificial); remark: listed apart in the source

- concentration for half-maximal inhibition of staurosporine-induced endothelial apoptosis (fold higher concentration) [1]: 24
- Kd [2]: > 0.3 µM
Substance: PTGla-APC (APC with prothrombin residues 1-46) (from UniProt P00734) (enzyme)

- PAR-1 peptide (TR33-62) cleavage (% rwt-APC), catalytic efficiency by HPLC [3]: < 3 % rwt-APC
Substance: S360A-APC (enzyme)

- PAR-1 peptide (TR33-62) cleavage (% rwt-APC), catalytic efficiency by HPLC [3]: 116 % rwt-APC
Substance: RR229/230AA-APC (enzyme)

- cleavage of the TR33-62 peptide at Arg41, HPLC (fold lower kcat/Km than thrombin) [4]: 25000
Substance: recombinant wild-type activated protein C (enzyme)

Source: patent publication US9192657B2
